Series [1] concerns the target T1, hPolεCD (DNA polymerase ε catalytic domain, exo-) (Homo sapiens, UniProt Q07864 27-1172, D275N;E277Q;del185-209). Kind of series: BLI; 100 mM NaCl, no dTTP/Mg2+; BLI (Octet K2): 30 mM Tris-Hepes pH 7.8, 100-150 mM NaCl, 2 mM TCEP, 0.002% Tween 20, 23 °C; EMSA: 20 mM Tris-Hepes pH 7.8, 100 mM NaCl, 2% glycerol, 2 mM TCEP, 0.2 mg/mL BSA, room temperature. Conditions: protein: recombinant; tags: none in final protein (N-terminal His6-Sumo cleaved); label: 5' BiotinTEG on template; template 5' overhang 9 nt and 3' overhang 3 nt. (In general: Biolayer interferometry detects binding as a change in optical thickness at a sensor tip.)

Series [2] deals with T1, hPolεCD (DNA polymerase ε catalytic …). As to the kind of experiment: BLI; 125 mM NaCl, no dTTP/Mg2+; BLI (Octet K2): 30 mM Tris-Hepes pH 7.8, 100-150 mM NaCl, 2 mM TCEP, 0.002% Tween 20, 23 °C; EMSA: 20 mM Tris-Hepes pH 7.8, 100 mM NaCl, 2% glycerol, 2 mM TCEP, 0.2 mg/mL BSA, room temperature. Conditions: protein: recombinant; tags: none in final protein (N-terminal His6-Sumo cleaved); label: 5' BiotinTEG on template; template 5' overhang 9 nt and 3' overhang 3 nt.

Series [3] has the same target. As to the kind of experiment: BLI; 150 mM NaCl, no dTTP/Mg2+; BLI (Octet K2): 30 mM Tris-Hepes pH 7.8, 100-150 mM NaCl, 2 mM TCEP, 0.002% Tween 20, 23 °C; EMSA: 20 mM Tris-Hepes pH 7.8, 100 mM NaCl, 2% glycerol, 2 mM TCEP, 0.2 mg/mL BSA, room temperature. The settings on record: protein: recombinant; tags: none in final protein (N-terminal His6-Sumo cleaved); label: 5' BiotinTEG on template; template 5' overhang 9 nt and 3' overhang 3 nt.

Series [4] has the same target. As to the kind of experiment: BLI; 100 mM NaCl, 50 µM dTTP, 5 mM Mg2+; BLI (Octet K2): 30 mM Tris-Hepes pH 7.8, 100-150 mM NaCl, 2 mM TCEP, 0.002% Tween 20, 23 °C; EMSA: 20 mM Tris-Hepes pH 7.8, 100 mM NaCl, 2% glycerol, 2 mM TCEP, 0.2 mg/mL BSA, room temperature. Conditions: protein: recombinant; tags: none in final protein (N-terminal His6-Sumo cleaved); label: 5' BiotinTEG on template; template 5' overhang 9 nt and 3' overhang 3 nt.

Series [5] has the same target. Kind of series: EMSA; 100 mM NaCl, 0.5 µM DNA; active fraction titration (55.4 ± 4.3%); BLI (Octet K2): 30 mM Tris-Hepes pH 7.8, 100-150 mM NaCl, 2 mM TCEP, 0.002% Tween 20, 23 °C; EMSA: 20 mM Tris-Hepes pH 7.8, 100 mM NaCl, 2% glycerol, 2 mM TCEP, 0.2 mg/mL BSA, room temperature. The settings on record: protein: recombinant; tags: none in final protein (N-terminal His6-Sumo cleaved); label: 5' Cy3 on primer; template 5' overhang 5 nt. A general note: A gel shift assay detects complexes by their altered migration in electrophoresis.

The source of these data is publication PMC9205888, “Efficient discrimination against RNA-containing primers by human DNA polymerase ε”.

What is called Kd is the constant that tells how readily two partners part at equilibrium.

T1 sequence (Q07864 other isoform, or with tags, fused parts or gaps D275N;E277Q;del185-209): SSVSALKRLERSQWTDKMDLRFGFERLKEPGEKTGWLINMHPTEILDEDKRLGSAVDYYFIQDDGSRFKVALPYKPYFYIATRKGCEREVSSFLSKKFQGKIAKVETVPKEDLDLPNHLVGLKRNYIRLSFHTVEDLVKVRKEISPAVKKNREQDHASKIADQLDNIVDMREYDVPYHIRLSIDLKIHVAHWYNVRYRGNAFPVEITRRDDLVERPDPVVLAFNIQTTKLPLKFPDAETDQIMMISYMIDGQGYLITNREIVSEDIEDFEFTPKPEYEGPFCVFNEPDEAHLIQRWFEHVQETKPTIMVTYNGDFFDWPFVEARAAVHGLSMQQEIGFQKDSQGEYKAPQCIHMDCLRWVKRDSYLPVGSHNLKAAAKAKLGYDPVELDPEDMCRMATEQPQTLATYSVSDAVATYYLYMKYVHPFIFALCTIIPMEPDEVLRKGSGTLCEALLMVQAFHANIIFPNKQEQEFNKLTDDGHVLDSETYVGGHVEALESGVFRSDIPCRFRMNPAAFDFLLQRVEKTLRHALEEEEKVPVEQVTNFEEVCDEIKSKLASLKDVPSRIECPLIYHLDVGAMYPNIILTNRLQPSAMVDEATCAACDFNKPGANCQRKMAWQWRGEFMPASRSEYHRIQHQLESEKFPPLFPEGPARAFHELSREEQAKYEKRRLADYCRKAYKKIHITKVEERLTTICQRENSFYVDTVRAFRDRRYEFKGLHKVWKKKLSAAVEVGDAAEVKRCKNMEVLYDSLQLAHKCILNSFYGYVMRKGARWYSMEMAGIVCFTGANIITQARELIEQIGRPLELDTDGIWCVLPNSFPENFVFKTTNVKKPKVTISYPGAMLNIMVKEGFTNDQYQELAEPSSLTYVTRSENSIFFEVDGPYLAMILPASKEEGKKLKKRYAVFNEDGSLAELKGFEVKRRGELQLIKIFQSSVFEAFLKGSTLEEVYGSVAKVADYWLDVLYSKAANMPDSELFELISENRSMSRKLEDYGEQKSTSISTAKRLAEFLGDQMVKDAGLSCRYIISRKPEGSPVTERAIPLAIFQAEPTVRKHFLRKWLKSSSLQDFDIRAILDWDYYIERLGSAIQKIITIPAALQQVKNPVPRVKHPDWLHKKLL

B1: R8-D3 template:primer (mixed)
DNA: AATACATAAGCGCTCCAGGCAAT
RNA: GCCUGGAGCGC
modifications: primer nt 1-8 RNA, nt 9-11 DNA, 3' ddC
In the case of B1, the Kd in series [1] stood at 62.5 ± 6.1 nM.

B2: D11 template:primer (dsDNA)
DNA 1: AATACATAAGCGCTCCAGGCAAT
DNA 2: GCCTGGAGCGC
modifications: primer 3'-terminal 2',3'-dideoxy-C
For the molecule B2, the equilibrium dissociation constant (Kd) is 61.4 ± 12 nM in series [1], 532 ± 53 nM in series [2], 1520 ± 91 nM in series [3] and 120 ± 11 nM in series [4].

B3: EMSA D15 template:primer (dsDNA)
DNA 1: ATTATGGCAGCTCGGAGTCC
DNA 2: GGACTCCGAGCTGCC
In the case of B3, the binding result in series [5] is listed as “binds”.

B4: R10-D1 template:primer (mixed)
DNA: AATACATAAGCGCTCCAGGCAAT
RNA: GCCUGGAGCGC
modifications: primer nt 1-10 RNA, nt 11 2',3'-dideoxy-C
Turning to B4, the Kd in series [1] worked out at 73 ± 14 nM.

B5: R6-D5 template:primer (mixed)
DNA: AATACATAAGCGCTCCAGGCAAT
RNA: GCCUGGAGCGC
modifications: primer nt 1-6 RNA, nt 7-11 DNA, 3' ddC
As to B5, the Kd in series [1] amounted to 69.8 ± 6.4 nM.

B6: R11 template:primer (DNA:RNA)
DNA: AATACATAAGCGCTCCAGGCAAT
RNA: GCCUGGAGCGC
modifications: RNA primer
Turning to B6, the dissociation constant (Kd) in series [1] amounted to 65.8 ± 8.8 nM.

B7: D10-R1 template:primer (mixed)
DNA 1: AATACATAAGCGCTCCAGGCAAT
DNA 2: GCCTGGAGCGC
modifications: primer nt 1-10 DNA, nt 11 3'-deoxy-C (2'-OH)
Regarding B7, in series [1], the Kd came to 45.6 ± 6.1 nM.

B8: R4-D7 template:primer (mixed)
DNA: AATACATAAGCGCTCCAGGCAAT
RNA: GCCUGGAGCGC
modifications: primer nt 1-4 RNA, nt 5-11 DNA, 3' ddC
For B8, the Kd in series [1] turned out to be 58.6 ± 1.3 nM; in series [4] it was 83 ± 3.3 nM.
